Results: PMC9976893, “Dynamic states of eIF6 and SDS variants modulate interactions with uL14 of the 60S ribosomal subunit” (Nucleic Acids Research, 2023)

B1: uL14 peptide (aa 121-140) with S138 to A substitution (peptide)
peptide: VAKECADLWPRIASNAGAIA
notes: also called site-specific mutant peptide S138
B2: uL14 peptide (aa 121-140) with alanine substitution of D127 (peptide)
peptide: VAKECAALWPRIASNAGSIA
notes: also called site-specific mutant peptide D127
B3: uL14 peptide (aa 121-140) with alanine substitution of N135 (peptide)
peptide: VAKECADLWPRIASAAGSIA
notes: also called site-specific mutant peptide N135
B4: uL14 peptide (aa 121-140) with alanine substitution of R131 (peptide)
peptide: VAKECADLWPAIASNAGSIA
notes: also called site-specific mutant peptide R131

What follows are binders tested against recombinant full-length human eIF6 (human, UniProt P56537 1-245) (assay: SPR; eIF6 immobilised on a CM5 chip by NHS/EDC chemistry (4913 RU); peptides injected at 0-500 μM (1:2 dilutions) in 20 mM HEPES pH 7.4, 150 mM NaCl, 0.01% BSA, 0.002% Tween 20; 25 μl/min; BIAcore S200; profiles did not obey a 1:1 model). Details: both partners purified.

Percent reduction of binding against the uL14-WT peptide at 0.5 mM, ~50%:
B1
B2
B3
B4
